Test results: the supplement of paper PMC12042874
± gives the uncertainty stated by the source.

Assay: amyloid nucleation score (Sup35N fusion, yeast selection) (log enrichment); library NNK1; higher = more nucleation; inactive = no reads after selection
Outline: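 Yeast lacking psi expressed peptides of 20 random codons fused to Sup35N, received 100 μM copper sulfate for 24 hours, and were then grown for 7 days at 30°C on medium lacking adenine and uracil. Illumina sequencing of input and output plasmid inserts provided the reads. Nucleation scores are DiMSum log enrichments of output over input, centred on the mode of non-aggregating sequences. Any sequence with under 100 input reads was excluded.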

| Substance | amyloid nucleation score |
| --- | --- |
| SPGVDGWNPWVDTVLRKVSK | -0.776 ± 0.61 |
| SPHAIGRYLSFCRFCGTAAR | -0.026 ± 0.35 |
| SPLFPRKLQVQYKTYPYG | inactive |
| SPQQVSLVGWSRWTEPRTS | -0.211 ± 0.36 |
| SPRRLGAVMVSRRVGVGKGW | 0.402 ± 1.4 |
| SPSSVYVINLNSNLRGNGFA | 7.08 ± 0.078 |
| SPTIVIKHRLNLESKRGYKV | -0.216 ± 0.44 |
| SPWFAHITPRVIMEERH | -1.18 ± 0.79 |
| SQCLSKLLSIDISRCWAGQM | 2.59 ± 0.46 |
| SQIADHIRSPRNL | -1.37 ± 2.1 |
| SQIASVINAQSSMCRFV | -0.023 ± 0.38 |
| SQLVHERNSVGFEIVWMNHL | -0.249 ± 1.7 |
| SQMAVYRPHLLVSSFMFTRS | 0.274 ± 0.57 |
| SQSTLCSHTP | 1.13 ± 0.74 |
| SQVEVIVYNVVSFTDGVRLA | 3.89 ± 0.097 |
| SQYQTLDVHIKGNVCSNLDM | 0.012 ± 1.6 |
| SQYSADSVHGCHLSVSPTWF | 1 ± 0.81 |
| SRAWWVKEFRGVKEVIQVRF | 0.488 ± 0.56 |
| SRCCGPCYTAV | -0.115 ± 0.3 |
| SRCYMDSIV | 0.101 ± 0.36 |
| SRFNPSQRMHSNSGKGGVSF | inactive |
| SRFWGER | 0.801 ± 0.62 |
| SRGLNFVIVTFYCDLLQG | -0.881 ± 1.6 |
| SRGLRNLSSMPNWAGLP | 0.707 ± 0.61 |
| SRGTGRARDAAA | -0.488 ± 1.1 |

| Substance | amyloid nucleation score |
| --- | --- |
| SRLRCMEH | 2.51 ± 0.15 |
| SRLSLT | 0.179 ± 0.82 |
| SRLVRSSLHMGAKTRVIQL | 0.881 ± 0.26 |
| SRMWR | -0.068 ± 0.45 |
| SRNAVVVVVQTYMDMTSCNT | 6.37 ± 0.068 |
| SRRSYSYFGIIICVNCSDTS | 8.583 ± 0.057 |
| SRSSCQVMVSRDAADVLHRI | 0.423 ± 0.58 |
| SRTFVGGLGLVYEIFIVMAV | -0.301 ± 0.59 |
| SRVFRLVFKPSYGSLTRRCR | -0.904 ± 1.9 |
| SRWFCYRLVFTFVGPTRHLD | 0.172 ± 0.77 |
| SRWPTHGSQIFVLTESVLTN | 0.062 ± 0.55 |
| SRWTFSNRAFYRTGAWA | 0.235 ± 0.68 |
| SRYELSIVDCLRHTTSFFVR | 0.034 ± 0.81 |
| SRYGWGTRSESRQLTSLSCT | -0.304 ± 1.3 |
| SRYIGSSPARMMASWTFQGL | 4.01 ± 0.078 |
| SRYSLTCRVLTWLPDNLVRR | 0.07 ± 0.42 |
| SSCSPHLLFGLASVGV | 0.39 ± 0.53 |
| SSCVIRKCKHERQRWMS | inactive |
| SSDEFVDGSLIWYHLFSPCR | -0.744 ± 0.41 |
| SSDGVSMLC | 0.33 ± 0.47 |
| SSESICFNIRGQDINRT | -0.446 ± 0.37 |
| SSFIPF | 0.1 ± 0.32 |
| SSGYSGSCVNINWC | 6.412 ± 0.045 |
| SSKLSYWYKMAIESSFNVLH | -0.083 ± 0.41 |
| SSKVERG | -0.139 ± 1.3 |

| Substance | amyloid nucleation score |
| --- | --- |
| SSLNLMPQVGEGRHTGV | -0.648 ± 0.46 |
| SSPIGSSSFTMGCGWREQ | 0.599 ± 0.88 |
| SSPSMSINVYRLNKS | inactive |
| SSRLKL | 1 ± 0.25 |
| SSRLVSFFGHSNTVLRMFNW | inactive |
| SSSADLAATARLFAGWEVLY | 0.045 ± 0.74 |
| SSSFRHAMRPSSISQRISPC | 0.354 ± 0.54 |
| SSSKLLR | -0.4 ± 0.7 |
| SSSKYMIFFYRAIHHHKGME | 0.31 ± 0.33 |
| SSTLLRMIEVRNGWEKGVWE | 0.083 ± 0.2 |
| SSVYVRLVMGF | 1.77 ± 0.61 |
| SSVYVSIQLGGTLPRWGGVR | 1.19 ± 0.3 |
| SSYSYSDLRTRYIRITSQLD | 0.203 ± 0.47 |
| STCHRSSSTCWKGYVRGLVV | 0.004 ± 0.18 |
| STFWENIIVFFHGPYHDMHT | -0.647 ± 0.69 |
| STKADTSRALVLCRGDC | -0.18 ± 0.59 |
| STLLMTSDSSALMLLYTSIL | -0.336 ± 0.46 |
| STLYLLHGRNSHTGRSFSRH | -1.01 ± 0.66 |
| STNVGRILMCVQLSLWKLN | 0.227 ± 0.29 |
| STRFPRLDALNGKKFYRKNT | 0.157 ± 0.66 |
| STRGHNMTEINVWMVHNILT | -0.116 ± 1.4 |
| SVAHMVDISFVVHPVMSTGN | -1.1 ± 0.82 |
| SVCKCKLNERIEKWNYRSIR | 0.227 ± 0.43 |
| SVFISNERL | inactive |
| SVGGWLSYRSDV | -0.901 ± 0.89 |

| Substance | amyloid nucleation score |
| --- | --- |
| SVGSLRRFSDFIYWNVVLNM | -0.3 ± 0.58 |
| SVGTDY | -0.465 ± 1.6 |
| SVHKWSSKTAMSLRTTYK | 0.284 ± 0.69 |
| SVISNVCSKCTVTRRDGP | 3.17 ± 0.11 |
| SVIYHRCLFLI | 6.906 ± 0.048 |
| SVKGRGRGILWMLAVSECVG | -0.762 ± 0.62 |
| SVKNYLCLMTTPFVFVLEM | 5.417 ± 0.049 |
| SVLCTLALSTCLGCLIVS | inactive |
| SVMGVSWFLFLDYGDSINFR | 0.521 ± 0.36 |
| SVMNGVGPQWLVLTYLPVSR | -0.38 ± 1.5 |
| SVNFRYPWCFTVGGMTVLLQ | 0.007 ± 0.73 |
| SVNRCFSAFLSQAIT | 0.042 ± 0.53 |
| SVRYWAYRFVHF | inactive |
| SVVRNEIYRYYKCSKTVSIW | -0.513 ± 0.33 |
| SVWGIILYYWKY | 0.388 ± 0.43 |
| SVYPLF | -0.268 ± 0.28 |
| SVYVLSRGAVSMSVWHR | 3.64 ± 0.15 |
| SWATWLDMNG | 0.964 ± 0.76 |
| SWCHFVCLYPKHVFSVVSST | 0.562 ± 1.2 |
| SWCRGLEVQWLRCIFRM | 0.274 ± 0.69 |
| SWFTVRCDDC | inactive |
| SWFYYAKC | 0.05 ± 0.76 |
| SWIEKDHFQVGARYRMSS | -0.376 ± 0.6 |
| SWLCHRTSVLVPVVSISRKL | 1.15 ± 0.7 |
| SWNNNAFAGMIPSNVVCCTY | 1.97 ± 0.26 |

| Substance | amyloid nucleation score |
| --- | --- |
| SWRLMIRYVDTPNSWNFSTM | -0.183 ± 0.67 |
| SWRNVLKSGASRNKVDRSSL | -0.22 ± 1.1 |
| SWSEVGWTHCMSWASHI | -1.14 ± 2.4 |
| SWVGRAVVEYSARARASTES | -0.327 ± 0.33 |
| SWVSAVIHRYGV | 1.31 ± 0.15 |
| SYAGYGTNK | -0.242 ± 0.62 |
| SYFKCMIILSRMLLVVLEI | -0.272 ± 0.65 |
| SYHLLMHMGIGQTLYKTRYD | 1.98 ± 0.21 |
| SYIDHYITKSDAVWRVSIEQ | -0.176 ± 0.35 |
| SYNTIIGSSCN | 0.701 ± 0.69 |
| SYPCTVHTKGWLVFTCGVCI | 0.32 ± 0.73 |
| SYQVRDVIKSF | 4.52 ± 0.1 |
| SYRHSSTSCKFGYVYRFTCL | 1.19 ± 0.41 |
| SYRRAVHGVVVQQKRDEFVL | -0.026 ± 0.36 |
| SYSDICEVNLDTHKFVLGVR | -0.992 ± 0.49 |
| SYTYCLVVG | 0.157 ± 1.4 |
| SYVMGLVYLIYTCKYWFFSE | -0.827 ± 1.7 |
| SYVRLFERFWVNFRSHMGNC | 0.014 ± 0.52 |
| TAASTHLVSACTLTKRCERL | -0.673 ± 0.92 |
| TAFFCRFPSCGGYIAYRSYV | -1 ± 1.2 |
| TAFLGTSGG | 0.448 ± 0.42 |
| TASICSYR | -0.289 ± 0.49 |
| TAVDLWYGGVGGLALNGVVS | 0.594 ± 0.62 |
| TAYAFNDCEFEPVWSRIVGN | -0.412 ± 0.48 |
| TCFEMLPLK | 0.454 ± 0.5 |

| Substance | amyloid nucleation score |
| --- | --- |
| TCFSSILKDMVWRNRRRWGY | 0.216 ± 0.84 |
| TCIDVQQYDCLVFFYFLHGF | inactive |
| TCISTCYD | -0.183 ± 0.9 |
| TCLCD | 1.52 ± 0.46 |
| TCLRACVHLVNYGVDMFSDK | 1.83 ± 0.32 |
| TCPWWTVIVFTSESMP | inactive |
| TCRNFRHG | -0.542 ± 0.57 |
| TDCHS | inactive |
| TDDATNVRKGAHS | 0.602 ± 0.6 |
| TDFMVGCVNMRRSESVWYC | 0.767 ± 0.39 |
| TDGIAVSFTNHDVWMVDAFV | 0.241 ± 1.4 |
| TDPRNNACVFYVCYYTSCWD | 0.923 ± 0.66 |
| TEDVKAVKVLGLTLGVQVIT | -0.657 ± 0.38 |
| TEGRKSSNVQ | 0.577 ± 0.47 |
| TESVRKWFKLRLWESWYNSN | 0.145 ± 0.51 |
| TFAVLRNSGFM | 0.529 ± 0.84 |
| TFFVVCKSTLILYEI | -0.186 ± 0.52 |
| TFGLRFVYMAHLVVWCADHR | 0.036 ± 0.33 |
| TFISSMPNQMIFPKGGSRGC | inactive |
| TFKKWMRIVYNLISKLKSRH | 2.98 ± 0.081 |
| TFKSTLFSYFPGPQEHARGR | 1.93 ± 0.25 |
| TFLMCRNACYK | 4.35 ± 0.15 |
| TFMHARDYDMNS | -0.666 ± 0.86 |
| TFSFARLRDLKWVMPRVRRS | 0.27 ± 0.44 |
| TFSTGFGGIISLACVRRQYL | 0.049 ± 0.88 |

| Substance | amyloid nucleation score |
| --- | --- |
| TFVDGGSFSENVVVMIRFYH | 4.99 ± 0.064 |
| TFYEMPFIFDLCYRWLTVTG | 1.34 ± 0.65 |
| TFYKYVGSTISPSFGFRYVG | -0.052 ± 0.38 |
| TGAYSECFALLIMG | -1.09 ± 1 |
| TGCRHFLQVCSVHRRRGSVC | 0.022 ± 0.78 |
| TGGFIFHGCAFYRMFSWLVD | 0.849 ± 1.1 |
| TGLELGVPKIRCMSFHVLPW | -0.394 ± 0.92 |
| TGLYSYIGFSDGYCVYEMIT | -0.122 ± 1.6 |
| TGNGTCCESFSRSDKENSDA | inactive |
| TGSHLPRDGSVSKCVFRY | 0.248 ± 0.53 |
| TGSQLWHIIFRC | 0.214 ± 0.24 |
| TGYGSDNCI | inactive |
| TGYLIYSSWC | 0.146 ± 0.4 |
| TGYWKSFSSAF | 0.072 ± 0.93 |
| THAMCRYQSHGKLLSSGADS | 0.781 ± 0.65 |
| THDLRLMIGHDCDTVNGYSR | -0.725 ± 0.43 |
| THFTTYYYWSQWGLWLSFCQ | 0.596 ± 0.31 |
| THGPFRCLSNCDVFTPNPEE | 1.03 ± 0.62 |
| THSRFKVCPVSMLCNAPQQR | 0.626 ± 1.2 |
| TICNEINQFKAK | 0.35 ± 0.59 |
| TIDCMLWGYFRNDSTKCTAA | 0.205 ± 0.47 |
